In the supplement of paper PMC10567573:
± gives the standard deviation.

Assay: protein stability index of a GFP-peptide fusion (GPS, HEK-293T) (PSI 1-6); higher = more stable
Conditions: c terminus: a fixed tail appended
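Also: 24-mer peptide tiles fused after GFP, lentivirally expressed, FACS-sorted into six equal bins by GFP/DsRed ratio, decoded by Illumina sequencing, PSI is the read-weighted mean bin number.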

Sequence | protein stability index (treatment: DMSO) | protein stability index (treatment: MLN4924 1 uM, 8 h)
QSKILKVIRKNIVKKCLELFSELA [HSP90AB1] | 2.47 ± 0.37 | 3.39 ± 0.91
TPLPETGYWRVRLWNGDKYAATTT [TRIM39] | 2.47 ± 0.34 | 2.37 ± 0.2
ENRVSTLRVSPDGTAFCSGSWDHT [GNB5] | 3.95 ± 0.14 | 3.9 ± 0.19
FDAALVSFINFFTSVLATLVVFAV [SLC6A17] | 3.44 ± 0.4 | 3.44 ± 0.97
GGIIAPFIPSLKYVQWSLPFIVFG [SLC22A15] | 2.75 ± 0.39 | 2.86 ± 0.32
TRRLRLAHVGMELQLKQELAMLNA [SCARA5] | 2.65 ± 0.23 | 2.55 ± 0.22
FLYSHGVPRTLSPHQYHSVHGVGM [TBX5] | 2.31 ± 0.38 | 2 ± 0.24
LYKEELEQTYHAKLENARLSSEMN [LMNB1] | 3.21 ± 0.64 | 3.62 ± 0.25
QTLDVNRDGGLCVNDLAVGLRRLG [SLC25A25] | 2.98 ± 0.23 | 3.18 ± 0.3
FLEALSSRYLGDSGLDDFFLDIDT [SERTAD3] | 2.4 ± 0.4 | 2.41 ± 0.39
RSREARSRLLLLEQELKTVTYSLL [SMAD6] | 2.61 ± 0.36 | 2.5 ± 0.33
TFFCPNDTYNDMATLFFNPQESAI [CLCN6] | 2.23 ± 0.32 | 2.26 ± 0.22
GKSFSQNTNLHTHQRTHTGEKPFT [ZNF75A] | 4.01 ± 0.28 | 4.25 ± 0.35
FAHHSLFLHVRKATRAMGLLNTLS [TMEM175] | 2.6 ± 0.78 | 2.18 ± 0.23
ESEEEGPWEPPVLPILTWPVLQSR [HDAC6] | 4.5 ± 0.17 | 4.37 ± 0.15
AVSTEDLKECLKKQLEFCFSRENL [LARP4] | 2.65 ± 0.55 | 3.11 ± 0.68
GKPLYLIFRNLCQMQEDNSSFSLL [INTS3] | 2.37 ± 0.41 | 2.28 ± 0.38
FEQTPALTKHEWTEALGCDPPLSQ [ZNF8] | 4.56 ± 0.26 | 4.6 ± 0.13
YADHNYGARPPPTPPASPPPSVLI [KMT2E] | 3.06 ± 0.32 | 3.34 ± 0.4
LLQIIDTTLLKCYLHTNVALVAPL [VPS39] | 3.13 ± 0.49 | 3.38 ± 0.21
LLGPATGCLLDDGLEGLFEDIDTS [SERTAD1] | 4.27 ± 0.097 | 4.32 ± 0.37
NVAASNAKLALFYDWLFFSPDKDS [INTS3] | 2.39 ± 0.46 | 2.55 ± 0.55
GPSEPGGTHPEDHQGHSDQHHHHH [RHOBTB2] | 5.65 ± 0.073 | 5.32 ± 0.24

Sequence | protein stability index (treatment: DMSO) | protein stability index (treatment: MLN4924 1 uM, 8 h)
TDQLEFTVEPRLLVADLLYWKDTR [RTN2] | 2.43 ± 0.23 | 2.54 ± 0.33
MASCPDSDNSWVLAGSESLPVETL [PBXIP1] | 4.31 ± 0.27 | 4.41 ± 0.22
MRHVEKMCKADLSRNFIERNHMEN [TRIM29] | 3.05 ± 0.16 | 3.1 ± 0.12
FVHELHLSRLQRVKFCLLGALLAP [LPCAT4] | 2.41 ± 0.71 | 2.06 ± 0.34
DLPWFRTLSWYFLLCVNYFFYGET [CDS2] | 3.95 ± 0.26 | 3.23 ± 0.97
DPDGKKIKQIQQLFEEILSNSRQL [FBXO33] | 2.54 ± 0.41 | 2.77 ± 0.24
LAPEVIQSKGHGRAVDWWALGILI [PRKX] | 2.61 ± 0.86 | 2.3 ± 0.62
YSIISLLLKDKVRERIQILKTSEV [PTPN9] | 2.9 ± 1.2 | 2.44 ± 0.31
LVDVACKHLTDTSHGVRNKCLQLL [INTS4] | 2.18 ± 0.49 | 2.46 ± 0.17
ELQLSDLLKQGYNKTLLRLRLRKE [PKD2L1] | 2.39 ± 0.26 | 2.76 ± 0.24
QACARNILVQTPESESPQSHRAAG [TRIM9] | 4.46 ± 0.16 | 4.5 ± 0.27
HYLIFDLVTGGELFEDIVAREYYS [CAMK2A] | 2.71 ± 0.72 | 2.54 ± 0.66
LIDEKVLILHGGVSDITDLELLDK [PPEF2] | 3.14 ± 1.5 | 3.71 ± 0.55
ILDTDEYVLKYMESNAAQYSPEAL [EFHC1] | 3.99 ± 0.31 | 3.96 ± 0.38
TQNHAASALPTGSPKRGTAPGDLS [FBF1] | 5.08 ± 0.18 | 5.13 ± 0.21
KALEILRKDFSELRSAGVEQLMYI [FAM50A] | 2.55 ± 0.31 | 2.38 ± 0.49
GAAAQGQTQTVAAQAQALAAQAAA [PI4K2A] | 5.07 ± 0.21 | 4.95 ± 0.21
QSLRCDLIRYICGVVHPSNEVLSS [INTS3] | 2.33 ± 0.34 | 2.19 ± 0.45
DTVFRFDPRYNKWMQVASLNEKRT [KLHL13] | 2.87 ± 0.41 | 3.14 ± 0.41
LGDEICCWSFYGQGRKIAEVCCTS [KCTD13] | 2.15 ± 0.1 | 2.1 ± 0.29
ISQQDPESDSQGQGNGLFYSSGPQ [ZC2HC1C] | 4.83 ± 0.48 | 5.08 ± 0.19
TLSAELVPWLNLKKQDENEGIKVE [CEP70] | 4.33 ± 0.057 | 4.22 ± 0.098
HSALGGTKKKKKTIVTDVFQGSMR [USP39] | 4.02 ± 0.4 | 4.14 ± 0.058

Sequence | protein stability index (treatment: DMSO) | protein stability index (treatment: MLN4924 1 uM, 8 h)
LPLDDQVALLRAHAGEHLLLGATK [HNF4A] | 3.6 ± 0.19 | 3.63 ± 0.19
NLSRDVTEALILQLFSQIGPCKNC [TIA1] | 2.48 ± 0.42 | 2.91 ± 0.6
PLNPKPHKKKSPGEKPHRCPQCGK [ZNF449] | 4.24 ± 0.12 | 4.49 ± 0.35
KTYQETPEIDMFLNVATFLDPRYK [ZBED1] | 2.38 ± 0.36 | 2.56 ± 0.32
SCSQSHCCSRYLCMGAMSLFLPCL [SPRY1] | 2.52 ± 0.44 | 2.5 ± 0.4
KMAAFHGAGLKRYLLTVMAAAAKA [ADAMTS4] | 2.43 ± 0.21 | 2.58 ± 0.5
KKKSILMKQLQQQQHSDKTSLQGL [ISL2] | 3.86 ± 0.2 | 4.04 ± 0.27
DDDAEEEGPKRELGVRRPGGAGKE [TCF25] | 5.58 ± 0.2 | 5.66 ± 0.15
AQFRLLSEVEELNMSLTALREKLL [TEKT4] | 2.23 ± 0.43 | 2.62 ± 0.45
INQVLLFLLIVTLCVILYKKVHKG [GLT8D2] | 3.12 ± 0.29 | 3.04 ± 0.9
DATPPVSPINMEDQERIKVERKRL [JUNB] | 5.53 ± 0.2 | 5.36 ± 0.4
NFEEMRALLDSLPPPVESELALFQ [KLHL14] | 3.46 ± 0.45 | 3.91 ± 0.28
QPTTLVLPPQYVDDVISRIDRMFP [MED27] | 3.67 ± 0.24 | 3.98 ± 0.074
RQVWLLFEYPESSGPARVIAIVSV [KCNA1] | 3.25 ± 0.45 | 2.64 ± 0.48
YSPEALASIQNHVRKREAPAPEAE [EFHC1] | 4.92 ± 0.19 | 5.06 ± 0.2
WYVCRTQGVEGDHCVTSDPATSPL [TRIM35] | 3.15 ± 0.18 | 2.98 ± 0.29
SGSLITAGRIDREELCAQSARCVV [PCDHGA10] | 3.22 ± 0.4 | 3.2 ± 0.29
KPDSVGLPPCAVRNLQDLARIYIR [PCMTD1] | 2.94 ± 0.085 | 2.85 ± 0.1
QPLSPASSSYSVSSPRSVDSYSST [ATF6] | 4.38 ± 0.22 | 4.59 ± 0.28
LLAAREDLSKIIRTSSGTSREKTA [FAM98B] | 4.05 ± 0.15 | 4.23 ± 0.24
DLSAANEKNLLLQNQVDELERKFR [LRRC45] | 3.96 ± 0.38 | 4.08 ± 0.62
GLKKLNLHEEEHVLLMAICIVSPD [VDR] | 3.13 ± 0.57 | 2.83 ± 0.54
RNVLELNDVRQSANYTCVAMSTLG [PTPRD] | 2.85 ± 0.28 | 2.74 ± 0.17

Sequence | protein stability index (treatment: DMSO) | protein stability index (treatment: MLN4924 1 uM, 8 h)
LGDPCPMLESPGAPCRSAQASVSC [HDAC6] | 3.94 ± 0.39 | 4.06 ± 0.18
STSLLTSAGNRTHKARTRPKARKQ [ADAMTSL2] | 4.89 ± 0.35 | 4.92 ± 0.25
KMREFTKTIKRPFGVKYNPYTRSI [TPH1] | 2.25 ± 0.21 | 2.31 ± 0.17
KTKYILLMDIVPADDHRYKFADNK [TBX5] | 2.08 ± 0.22 | 2.3 ± 0.42
LEPPEEEIIEGNTKSHIMLVQRQM [NECAB1] | 4.64 ± 0.16 | 4.8 ± 0.24
CEDQKQIKKPESFSKQIVLRGKSI [NEUROD6] | 4.7 ± 0.21 | 4.61 ± 0.21
YGSIHGPTDYQVNIQIIEYEKKQT [BTBD1] | 2.96 ± 0.48 | 3.28 ± 0.33
LPWSSVLRVWDMFFCEGVKIIFRV [TBC1D10A] | 2.96 ± 0.72 | 3.34 ± 0.86
KAENARLVVNIDNAKLASDDFRSK [KRT34] | 4.62 ± 0.16 | 4.71 ± 0.14
INQSFTGAERKAALCELLEKETQI [IQUB] | 4.38 ± 0.23 | 4.01 ± 0.19
ICGIICIGPNVLMVHKRSHTGERP [IKZF1] | 2.46 ± 0.28 | 2.02 ± 0.38
MEKGPVRAPAEKPRGARCSNGFPE [GCH1] | 4.46 ± 0.29 | 4.58 ± 0.25
VVLSDGPALHPAHAPQISYTGPSS [NCK2] | 3.13 ± 0.37 | 3.38 ± 0.17
AVGKMGFVVTMLKLIQKKLLDKTC [ZER1] | 2.29 ± 0.64 | 2.35 ± 0.8
DHQTLLSAAHEVELQRQKEAEKLE [NOP53] | 5.46 ± 0.15 | 5.42 ± 0.38
LKNSNYESIQQTARSIAEQAHELA [PPTC7] | 3.91 ± 0.54 | 3.78 ± 0.26
KQGELPREVRRAQARLLNPSATRA [NOP53] | 4.42 ± 0.46 | 4.47 ± 0.19
KESSPSGSKSQRYSGAYGASVSDE [CHCHD3] | 5.31 ± 0.5 | 4.99 ± 0.12
KTNLDGMITVQLPEVPANENIKGY [PTPRD] | 4.12 ± 0.4 | 4.24 ± 0.28
QLTGHQRIHSGEEPHKCPECGKRF [ZNF449] | 4.01 ± 0.28 | 4.82 ± 0.38
